According to US20220056517A1 (OXFORD NANOPORE TECHNOLOGIES, published 2022):
Substitutions are numbered along the chain they refer to. In names and notes the source's numbering stands. No end group written: not given here. *: point of attachment. NH(CH2)5NH2 = NCCCCCN*

T1: CsgG Y51A/N55V/F56Q/N91R/K94Q/R97W-del(V105-I107) pore containing the C terminal strep tag (E. coli, UniProt P0AEA2 16-277)
T1 construct: Oligomeric CsgG pore; also called Y51A/F56Q/N55V/N91R/K94Q/R97W-del(V105-I107); not shown: C-terminal Strep tag
T1 chain: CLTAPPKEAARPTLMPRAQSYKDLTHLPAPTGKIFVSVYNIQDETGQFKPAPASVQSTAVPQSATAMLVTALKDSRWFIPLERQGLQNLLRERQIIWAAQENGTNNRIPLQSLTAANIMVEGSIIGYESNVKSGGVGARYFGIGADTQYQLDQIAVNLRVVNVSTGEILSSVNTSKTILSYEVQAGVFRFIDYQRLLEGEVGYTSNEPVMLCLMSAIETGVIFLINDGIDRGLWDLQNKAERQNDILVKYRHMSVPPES

T2: CsgG Y51A/F56Q/N91R/K94Q/R97W-del(V105-I107) pore containing the C terminal strep tag (E. coli, UniProt P0AEA2 16-277)
T2 construct: Oligomeric CsgG pore; not shown: C-terminal Strep tag
T2 chain: T1 chain with V55N

T3: CsgG Y51A/F56Q/K94Q/R97W/R192D-del(V105-I107), Strep-tagged (E. coli, UniProt P0AEA2 16-277)
T3 construct: Oligomeric CsgG pore; also called CsgG mutant with altered constriction; not shown: Strep tag
T3 chain: T1 chain with V55N, R91N, R189D

B1: E. coli CsgG (wild-type) fused C-terminally to a Strep-II tag, outer membrane pore (other)
chain: CLTAPPKEAARPTLMPRAQSYKDLTHLPAPTGKIFVSVYNIQDETGQFKPYPASNFSTAVPQSATAMLVTALKDSRWFIPLERQGLQNLLNERKIIRAAQENGTVAINNRIPLQSLTAANIMVEGSIIGYESNVKSGGVGARYFGIGADTQYQLDQIAVNLRVVNVSTGEILSSVNTSKTILSYEVQAGVFRFIDYQRLLEGEVGYTSNEPVMLCLMSAIETGVIFLINDGIDRGLWDLQNKAERQNDILVKYRHMSVPPES
modifications: N-terminal lipidation of mature CsgG (Cys at the N-terminal position)
notes: Nonameric pore; dimers of nonamers also seen; also called CsgG-Strep; CsgG-strep; not shown: C-terminal Strep-II tag
B2: E. coli CsgF (mature) with C-terminal 6x histidine tag (other)
chain: GTMTFQFRNPNFGGNPNNGAFLLNSAQAQNSYKDPSYNDDFGIETPSALDNFTQAIQSQILGGLLSNINTGKPGRMVTNDYIVDIANRDGQLQLNVTDRKTGQTSTIQVSGLQNNSTDFHHHHHH
notes: also called CsgF-His; CsgF-his
B3: CsgF-(1-29) synthetic peptide (peptide)
peptide: GTMTFQFRNPNFGGNPNNGAFLLNSAQAQ
B4: CsgF truncated at position 35 by TEV protease cleavage, with ENLYFQ left at the cleavage site (peptide)
peptide: GTMTFQFRNPNFGGNPNNGAFLLNSAQAQNSYKDPENLYFQ
notes: also called CsgF truncated protein; No mutations at 17 position of CsgF
B5: CsgF N17S truncated at position 35 by TEV protease cleavage, with ENLYFQ left at the cleavage site (peptide)
peptide: B4 peptide with N17S
notes: also called N175 mutation in CsgF (sic, N17S)
B6: CsgF-N17V-(1-35) peptide (peptide)
peptide: GTMTFQFRNPNFGGNPVNGAFLLNSAQAQNSYKDP
B7: CsgF 20:64 peptide with C-terminal 6xHis (from pNA100) (peptide)
peptide: GTMTFQFRNPNFGGNPNNGAFLLNSAQAQNSYKDPSYNDDFGIETHHHHHH
notes: first 45 residues of mature CsgF; also called CsgF fragment 1-64; CsgF 1-64
B8: Pro-CP1-Eco-(WT-Y51A/F56Q/D149N/E185N/E201N/E203N-StrepII(C)) CsgG pore (other)
chain: CLTAPPKEAARPTLMPRAQSYKDLTHLPAPTGKIFVSVYNIQDETGQFKPAPASNQSTAVPQSATAMLVTALKDSRWFIPLERQGLQNLLNERKIIRAAQENGTVAINNRIPLQSLTAANIMVEGSIIGYESNVKSGGVGARYFGIGANTQYQLDQIAVNLRVVNVSTGEILSSVNTSKTILSYNVQAGVFRFIDYQRLLNGNVGYTSNEPVMLCLMSAIETGVIFLINDGIDRGLWDLQNKAERQNDILVKYRHMSVPPESSAWSHPQFEK
notes: The entry already holds the mutations and the StrepII tag; also called Pro-CP1-Eco-(Mutant-StrepII(C)); monomeric pore
B9: CsgF-(1-30) synthetic peptide (peptide)
peptide: GTMTFQFRNPNFGGNPNNGAFLLNSAQAQN
notes: Range counted on mature CsgF; also called mature peptide of CsgF 1:30
B10: Alexa 594-labelled synthetic CsgF peptide corresponding to the first 34 residues of mature CsgF (peptide)
peptide: GTMTFQFRNPNFGGNPNNGAFLLNSAQAQNSYKD-{NH(CH2)5NH2-Alexa594}
notes: also called CsgF N-terminal peptide; FCP

Columns and labels:
[1] = target: the molecule itself; assay: size exclusion chromatography (Superose 6); pore-pore dimer
[2] = target: B1; assay: cryo-EM of co-purified or in vitro reconstituted CsgG:CsgF particles
[3] = target: T1, CsgG …; assay: reconstitution with synthetic peptide, electrophysiology
[4] = target: T2, CsgG …; assay: co-expression, purification, TEV cleavage; DNA translocation current recording
[5] = target: T1, CsgG …; assay: in vitro reconstitution; DNA translocation current recording
[6] = target: B1; assay: co-expression, Strep affinity purification, anti-His dot blot
[7] = target: the molecule itself; assay: size exclusion chromatography (S200 increase) of Strep- and ion-exchange-purified CsgG pore; pore-pore dimer
[8] = target: T3, CsgG …; assay: in vitro reconstitution (2:1 molar ratio), StrepTactin pull down, native PAGE with fluorescence
[9] = target: B1; assay: as above

B1
binding result [1]: binds

B2
binding result [2]: binds

B3
binding result [3]: binds

B4
binding result [4]: binds

B5
binding result [4]: binds

B6
binding result [5]: binds

B7
binding result [6]: binds

B8
binding result [7]: binds

B9
binding result [3]: binds

B10
binding result [8]: binds
binding result [9]: binds
